B1: NEC_M_44 (VHH)
VHH: EVQLLESGGGLVQPGGSLRLSCAASGRTLSSYAMGWYRQAPGKERELVSSISGSGGSTRYADSVKGRFTISRDNSKNTLYLQMNSLKPEDTAVYYCAVYILELAPGAEYWGQGTQVTVSS
Take B1: the figures for the Kd with msNec4 and with huNec4 were 0.027 µM and 0.033 µM, respectively.

B2: NEC_S_55 (VHH)
VHH: EVQLLESGGGLVQPGGSLRLSCAASGFTLSSYAMGWYRQAPGKERELVSSISGSGGSTRYADSVKGRFTISRDNSKNTLYLQMNSLKPEDTAVYYCAAYIGGDYLGQGTQVTVSS
Turning to B2, the equilibrium dissociation constant (Kd) is 0.028 µM with msNec4 and 0.081 µM with huNec4.

B3: NEC_M_17 (VHH)
VHH: EVQLLESGGGLVQPGGSLRLSCAASGFTYSGYAMGWYRQAPGKERELVSSISGSGTLTSYADSVKGRFTISRDNSKNTLYLQMNSLKPEDTAVYYCDVDIPVGDATTVGDYWGQGTQVTVSS
B3: the Kd amounted to 0.011 µM with msNec4 and 0.01 µM in the test with huNec4.

B4: NEC_M_5 (VHH)
VHH: EVQLLESGGGLVQPGGSLRLSCAASGLSFSSYSMGWYRQAPGKEREFVSAISGSSGSTNYADSVKGRFTISRDNSKNTLYLQMNSLKPEDTAVYYCAAEHRVTTSGVFYDYWGQGTQVTVSS
On to B4, for which the Kd with msNec4 turned out to be 8.06 µM; with huNec4 it was 0.028 µM.

B5: NEC_M_46 (VHH)
VHH: EVQLLESGGGLVQPGGSLRLSCAASGYTFSDYAMGWYRQAPGKERELVSSISGSGGSTRYADSVKGRFTISRDNSKNTLYLQMNSLKPEDTAVYYCAAVIRQPSTGFYEYWGQGTQVTVSS
In the case of B5, the Kd in the test with msNec4 was found to be 0.014 µM; with huNec4, 0.019 µM.

B6: NEC_M_8 (VHH)
VHH: EVQLLESGGGLVQPGGSLRLSCAASGFTFSSYAMGWYRQAPGKEREFVSSISGSGGLTRYADSVKGRFTISRDNSKNTLYLQMNSLKPEDTAVYYCAVTTGYQGGVYDYWGQGTQVTVSS
For B6, the results for the Kd in the test with msNec4 and with huNec4 were 0.047 µM and 0.122 µM, respectively.

B7: NEC_S_11 (VHH)
VHH: EVQLLESGGGLVQPGGSLRLSCAASGLTSSGYAMGWYRQAPGKERELVSSISSSGGLTHYADSVKGRFTISRDNSKNTLYLQMNSLKPEDTAVYYCDADIAYTGADYWGQGTQVTVSS
As for B7, the results for the Kd with msNec4 and with huNec4 were 0.038 µM and 0.302 µM, respectively.

B8: NEC_S_31 (VHH)
VHH: EVQLLESGGGLVQPGGSLRLSCAASGFTYSSYAMGWYRQAPGKERELVSSISGSGGSTRYADSVKGRFTISRDNSKNTLYLQMNSLKPEDTAVYYCAVAIGVGDYWGQGTQVTVSS
As to B8, the Kd in the test with msNec4 was 0.01 µM; with huNec4, 0.084 µM.
